From patent publication US20170267762A1 (APOLLOMICS, published 2017)

T1: mouse PD-1 (mouse, UniProt Q02242 25-169, limits assumed)
T1 sequence (looked up): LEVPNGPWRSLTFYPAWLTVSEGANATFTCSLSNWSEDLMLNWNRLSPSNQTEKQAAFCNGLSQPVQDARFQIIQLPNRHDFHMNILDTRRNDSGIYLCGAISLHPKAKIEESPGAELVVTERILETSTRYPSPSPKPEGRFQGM

T2: human CTLA4 (human, UniProt P16410 36-161, limits assumed)
T2 sequence (looked up): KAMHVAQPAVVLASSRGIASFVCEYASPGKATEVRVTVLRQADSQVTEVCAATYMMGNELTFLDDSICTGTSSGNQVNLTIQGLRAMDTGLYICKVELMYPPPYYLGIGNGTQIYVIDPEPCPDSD

T3: human ICOS (human, UniProt Q9Y6W8 21-140, limits assumed)
T3 sequence (looked up): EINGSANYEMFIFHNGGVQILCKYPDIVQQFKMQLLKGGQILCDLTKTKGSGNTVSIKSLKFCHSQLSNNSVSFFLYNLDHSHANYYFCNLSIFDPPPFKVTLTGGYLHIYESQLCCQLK


Legend:
[1] = target: T4, human PD-1 extracellular domain fused with mouse Fc (PD-1-mFc) (human, UniProt Q15116 25-170); assay: blockage ELISA, coated PD-1-mFc, competitor PDL-1-mFc-biotin
T4 construct: extracellular domain; not used because of the label; also called hPD-1-mFc; human PD-1-mouse Fc fusion protein
Procedure: (§1) PD-1-mFc antigen (CrownBio) was suspended in PBS (Hyclone,Cat No:SH30256.01B) buffer (2 ug/ml, 100 ul/ well) and coated on the 96 well plate (costar, Cat No.:9018) 4° C. overnight. Plates were washed 3 times using washing buffer: PBS+0.05% Tween 20(Sigma, Cat No.:P1379). 200 ul of blocking buffer (PBS+1%BSA(Roche, Cat No.:738328)), was added to each well, incubated at 37° C. for 1 hour, and washed 3 times. Various concentrations (suitable dilutions of hybridoma supernatant in PBS) of the anti-PD-1 Abs were added to the wells (100 μl/well) and incubated at 37° C. for 1 hour. […] Secondary antibody (Avidin HRP eBioscience cat No.:E07418-1632, 1:500, 100 ul/well) was added, incubated at 37 ° C. for 0.5 hour, and washed 3 times. TMB (Sigma, Cat No.: T0440, 100 ul/well) was added, and incubated for 3 min at RT. To stop the reaction, 2N H2SO4 (100 ul/well), was added. The colorimetric signals were developed and read at 450 nm using a Auto Plate SpectraMax Plus (Supplier: Molecular Devices; Model: MNR0643; Software: SoftMax Pro v5.4).
(§2) The purified hybridoma antibodies were characterized further based on ELISA and FACS analyses.

[2] = target: T5, human PD-1 (construct not stated) (human, UniProt Q15116 25-167, limits assumed); assay: Biacore, antibody captured, PD-1 analyte
T5 construct: also called PD-1 analyte
Procedure: (§3) To further characterize the binding characteristics of the antibodies, 10 hybridoma antibodies were profiled using Biacore (Biacore 3000, GE) to elucidate binding kinetics and calculate equilibrium binding constants. This assay was performed by capture method, using the mouse antibody capture kit (BR-1008-38, GE). After diluting anti-mouse Fc mab to 25 μg/ml in pH 5.0 immobilization buffer, immobilization was conducted with the parameters shown in Table 6 at a flow rate of 5 μl/min. The kinetic runs were done by 1) injecting ligand for typical 0.5-1 min at flow rate of 10 μl/min.; 2) injecting analytes of choice for typical 3 min followed by dissociation in running buffer (1× PBS-P20) for typical 5-10 min at flow rate of 30 μl/min.; and 3) injecting regeneration solution 10 mM Glycine pH1.7 for typical 1-2 min at flow rate of 10 μl/min.

[3] = target: T6, human PD-1 extracellular domain fused with human Fc tag (hPD-1-hFc) (human); assay: ELISA on coated PD1-hFc
T6 construct: also called human PD-1-hFc
Procedure: (§4) ELISA binding analysis was conducted based on human PD-1-hFc Protein. 96-well plates (Costar, Cat No:9018) were coated with 100 μL of 2 μg/ml PD1-hFc (CrownBio) in coating buffer (PBS, Hyclone, Cat No:SH30256.01B) overnight at 4° C. The wells were aspirated and non-specific binding sites were blocked by adding 200 μL of blocking buffer with 1% (w/v) of bovine serum albumin (BSA, Roche, Cat No: 738328) and incubating for 1 hour at 37° C. After the plates are washed three times with wash buffer (PBS with 0.05%(v/v) Tween20 (Sigma, Cat No:P1379), 100 μL/well of a suitable dilutions of hybridoma supernatant in blocking buffer were added and incubated at room temperature for 1 hour. The plates were washed and incubated with 100 μL/well of Goat anti-Mouse IgG (H+L) (Thermo, Cat No: 31432) in blocking buffer for 60 min. After the plates were washed, 100 μL/well of substrate solution (TMB(eBioscience, Cat No:00-4201-56) was added and the plates were incubated for 2min at room temperature. 100 μL/well of stop solution (2N H2SO4) was added to stop the reaction. The colorimetric signals were developed and read at 450 nm using a Auto Plate SpectraMax Plus (Supplier: Molecular Devices; Model: MNR0643; Software: SoftMax Pro v5.4).
as §2

[4] = target: T7, human PD-1 on cells (293T cells transfected with human PD-1) (human, UniProt Q15116 25-288); assay: FACS blockage on hPD-1-293T cells, competitor biotin PD-L2
T7 construct: whole, on cells; Also used as the target for the functional rows, where PD-1 stands on human T cells
Procedure: (§5) Various concentrations of the testing hybridoma antibodies were added to the cell suspension and incubated at 4° C. for 60 minutes in 96 well plates. […] Plates were washed 3 times, and mouse anti-biotin PE antibody (Biolgend, cat# 409004) was added. Flow cytometric analyses were performed using a FACS Array.
as §2

[5] = target: T5, human PD-1 (construct not stated); assay: Biacore (summary table; unit from Table 7)
Procedure: as §3

[6] = target: T7, human PD-1 on cells (293T cells …); assay: FACS blockage on hPD-1-293T cells, competitor biotin PD-L1
Procedure: as §5, §2

[7] = target: T1, mouse PD-1; assay: assays not detailed
[8] = target: T6, human PD-1 extracellular domain fused …; assay: ELISA binding (summary table)
Procedure: as §4, §2

[9] = target: T7, human PD-1 on cells (293T cells …); assay: FACS on hPD-1-293T cells
Procedure: The cells were incubated with the indicated antibody (20 ug/ml with the dilution of ⅕) at 4° C. for 1 h. Cells were washed three times with FACS buffer. A secondary antibody (PE Goat anti-mouse: 1:200; PE mouse anti-human: 1:10) was added to the cells at 100 ul/well, and incubated at 4° C. for 40min. Cells were washed three times with FACS buffer and analyzed by FACS Array.
as §2

[10] = target: T2, human CTLA4; assay: Interaction with CTLA4, ICOS CD28; assay not detailed
[11] = target: human CD28 (human, UniProt P10747 19-152, limits assumed); assay: as above
[12] = target: T3, human ICOS; assay: as above
[13] = target: T4, human PD-1 extracellular domain fused …; assay: blockage ELISA, competitor PDL-1-mFc-biotin (summary table; IC50 in ng/ml in Table 2)
Procedure: as §1

T5 sequence (Q15116 25-167 limits assumed): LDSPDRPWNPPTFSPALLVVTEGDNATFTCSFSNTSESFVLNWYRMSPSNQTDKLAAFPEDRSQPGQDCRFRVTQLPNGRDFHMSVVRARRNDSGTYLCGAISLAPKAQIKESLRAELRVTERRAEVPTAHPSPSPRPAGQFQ
T6 sequence (chain, as listed by the source limits assumed): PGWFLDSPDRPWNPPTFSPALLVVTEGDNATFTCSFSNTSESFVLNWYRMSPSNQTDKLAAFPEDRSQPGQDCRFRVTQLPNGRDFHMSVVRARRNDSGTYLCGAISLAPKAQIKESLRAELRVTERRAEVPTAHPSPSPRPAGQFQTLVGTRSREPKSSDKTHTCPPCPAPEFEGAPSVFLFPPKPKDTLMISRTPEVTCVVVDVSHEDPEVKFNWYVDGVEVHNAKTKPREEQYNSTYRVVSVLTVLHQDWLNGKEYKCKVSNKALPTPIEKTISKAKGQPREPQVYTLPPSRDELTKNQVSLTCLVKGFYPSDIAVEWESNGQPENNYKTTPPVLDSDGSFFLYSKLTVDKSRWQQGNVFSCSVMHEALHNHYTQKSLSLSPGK
T7 sequence (Q15116 25-288): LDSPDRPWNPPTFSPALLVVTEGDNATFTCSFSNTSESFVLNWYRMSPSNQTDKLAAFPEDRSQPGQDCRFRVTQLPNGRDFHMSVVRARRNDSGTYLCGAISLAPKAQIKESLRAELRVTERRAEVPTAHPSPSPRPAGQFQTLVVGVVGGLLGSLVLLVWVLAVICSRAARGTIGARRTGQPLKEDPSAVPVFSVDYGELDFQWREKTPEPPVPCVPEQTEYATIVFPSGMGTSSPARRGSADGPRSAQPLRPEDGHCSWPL
T4 sequence (Q15116 25-170): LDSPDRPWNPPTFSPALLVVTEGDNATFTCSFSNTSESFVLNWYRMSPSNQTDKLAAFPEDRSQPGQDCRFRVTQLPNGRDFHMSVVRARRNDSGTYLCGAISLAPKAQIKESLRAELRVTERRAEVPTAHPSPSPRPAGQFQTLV
human CD28, sequence (P10747 19-152 limits assumed): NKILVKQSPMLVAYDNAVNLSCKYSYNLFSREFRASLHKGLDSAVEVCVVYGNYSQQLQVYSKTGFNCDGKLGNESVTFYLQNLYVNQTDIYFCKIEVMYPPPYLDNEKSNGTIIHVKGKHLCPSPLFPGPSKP

IC50 [1]	Ka [2]	Kd [2]	koff [2]	kon [2]	EC50 [3]	IC50 [4]	Kd [5]	IC50 [6]	binding result [7]	EC50 [8]	EC50 [9]	binding result [10]	binding result [11]	binding result [12]	IC50 [13]	Binder
1.46 µg/mL	3.01e+10 M⁻¹	0.0332 nM	2.63e-05 s⁻¹	791000 M⁻¹ s⁻¹	0.0132 µg/mL	0.251 µg/mL	0.0332 nM	0.0833 µg/mL	no binding	0.0132 µg/mL	0.109 µg/mL	no binding	no binding	no binding	1460 ng/mL	4C10 murine anti-PD-1 antibody (antibody, V domains shown, Purified hybridoma antibody; also called 4C10-mIgG1) VH: QVQLKQSGPGLVQPSQNLSVTCTVSGFSLTTYGVHWVRQSPGKGLEWLGVIWSGGSTDYNAAFISRLTISKDNARSQVFFKMNSLQVNDTAMYYCAREKSVYGNYVGAMDYWGQGTSVTVSS VL: SIVMTQTPKFLLVSAGDRVTITCKASQSVSDDVAWYQQKPGQSPKLLIYYAFNRYTGVPDRFTGSGYGTDFTFTISTVQSEDLAVYFCQQDYRSPWTFGGGTKLEIKR
0.982 µg/mL	4.02e+10 M⁻¹	0.0249 nM	2.83e-05 s⁻¹	1.14e+06 M⁻¹ s⁻¹	0.0244 µg/mL	0.141 µg/mL	0.0249 nM	0.038 µg/mL	no binding	0.0244 µg/mL	0.0527 µg/mL	no binding	no binding	no binding	982 ng/mL	7D3 murine anti-PD-1 antibody (antibody, V domains shown, Purified hybridoma antibody; also called 7D3-mIgG1) VH: EVKLVESGGGLVKPGGSLKLSCGASGFTFSSYGMSWVRQTPEKRLEWVATISGGGRDIYYPDSVKGRLTISRDNAKNNLYLQMSSLRSEDTALYYCVRQYYDDWFAYWGQGTLVTVSA VL: DIVLTQSPATLSVTPGDSVSLSCRASQSISNDLHWYQQKSHESPRLLIKYVSQSISGIPSRFSGSGSGTDFTLSINSVETEDFGMYFCQQSDSWPLTFGAGTKLELKR
